Patent US20240287172A1 (SCIRHOM, published 2024)
Residue numbers refer to the chain shown, from its start.

T1: hiR2-FL-E594V-T7 (human, UniProt Q6PJF5 1-856)
T1 sequence: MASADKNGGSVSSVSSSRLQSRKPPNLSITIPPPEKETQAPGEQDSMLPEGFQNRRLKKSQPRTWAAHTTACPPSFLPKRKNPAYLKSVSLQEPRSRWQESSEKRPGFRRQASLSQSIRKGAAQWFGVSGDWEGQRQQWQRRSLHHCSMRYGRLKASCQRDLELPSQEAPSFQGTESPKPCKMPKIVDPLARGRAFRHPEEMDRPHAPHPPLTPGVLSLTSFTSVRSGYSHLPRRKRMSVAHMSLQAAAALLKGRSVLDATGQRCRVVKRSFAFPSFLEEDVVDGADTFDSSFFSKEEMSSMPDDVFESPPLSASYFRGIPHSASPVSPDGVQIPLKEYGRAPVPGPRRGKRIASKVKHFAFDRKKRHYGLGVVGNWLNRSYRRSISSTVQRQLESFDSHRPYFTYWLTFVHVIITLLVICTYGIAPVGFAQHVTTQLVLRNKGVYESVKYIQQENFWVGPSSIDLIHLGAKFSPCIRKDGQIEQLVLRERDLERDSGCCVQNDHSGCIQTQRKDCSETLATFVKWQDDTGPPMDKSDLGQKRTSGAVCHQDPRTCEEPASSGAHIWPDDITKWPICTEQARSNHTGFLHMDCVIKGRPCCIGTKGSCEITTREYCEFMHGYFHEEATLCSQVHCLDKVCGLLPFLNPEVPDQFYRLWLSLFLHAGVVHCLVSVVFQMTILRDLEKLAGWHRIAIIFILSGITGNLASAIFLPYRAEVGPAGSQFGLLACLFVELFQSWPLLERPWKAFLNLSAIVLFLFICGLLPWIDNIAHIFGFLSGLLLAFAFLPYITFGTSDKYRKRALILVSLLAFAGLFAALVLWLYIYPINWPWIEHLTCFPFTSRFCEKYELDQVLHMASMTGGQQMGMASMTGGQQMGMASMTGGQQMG

B1: antibody 48 (antibody, V domains shown)
VH: QVQLQQSGTELVRPGTSVKVSCKASGYAFTNYLIEWVKQRPGQGLEWIGVINPGSGFTKYNEKFKGKATLTADKSSSTVYMHLSSLTSEDSAVYFCARGLYRAMDYWGQGTSVTVSS
VL: DIQMTQSPASQSASLGESVTITCLASQTIATWLAWYQQKPGKSPQLLIYGATTLADGVPSRFSGGGSGTKFSFKISSLQAEDFVSYYCQQLYSTPYTFGGGTKLEIK
notes: mouse IgG, kappa light chain; also called clone #48; purified antibody 48
B2: antibody 50 (antibody, V domains shown)
VH: B1 VH with T9A, T16A, T30S, V79A, H82Q
VL: B1 VL with A30G, G50A, T52A, T53S, S85N, L91I
notes: mouse IgG, kappa light chain; also called clone #50; purified antibody 50

Biological target: T1, hiR2-FL-E594V-T7
Test: FACS, MEF-DKO cells, 3 µg/ml
Outline: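 Binding read by flow cytometry after a PE goat anti-mouse IgG F(ab′)2 secondary (1:100, on ice, 1 h, dark). Before that, immortalized MEF-DKO lines carrying single-mutant hiR2-FL-T7 constructs were incubated 1 h on ice with 3 μg/ml antibody or FACS buffer alone.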

Binder	loss of binding vs wild type
B1	≥ 30%
B2	≥ 30%
